These results are taken from US20260226189A1 (PHILOGEN S P A, published 2026).

In assay [1] the target is T1, human carcinoembryonic antigen (CEA, CEACAM5) on cells or tumor tissue (human, UniProt P06731 35-685).
T1 construct: whole, on cells; One entry covers all cell-based and tissue assays; also called human CEA
T1 sequence (looked up): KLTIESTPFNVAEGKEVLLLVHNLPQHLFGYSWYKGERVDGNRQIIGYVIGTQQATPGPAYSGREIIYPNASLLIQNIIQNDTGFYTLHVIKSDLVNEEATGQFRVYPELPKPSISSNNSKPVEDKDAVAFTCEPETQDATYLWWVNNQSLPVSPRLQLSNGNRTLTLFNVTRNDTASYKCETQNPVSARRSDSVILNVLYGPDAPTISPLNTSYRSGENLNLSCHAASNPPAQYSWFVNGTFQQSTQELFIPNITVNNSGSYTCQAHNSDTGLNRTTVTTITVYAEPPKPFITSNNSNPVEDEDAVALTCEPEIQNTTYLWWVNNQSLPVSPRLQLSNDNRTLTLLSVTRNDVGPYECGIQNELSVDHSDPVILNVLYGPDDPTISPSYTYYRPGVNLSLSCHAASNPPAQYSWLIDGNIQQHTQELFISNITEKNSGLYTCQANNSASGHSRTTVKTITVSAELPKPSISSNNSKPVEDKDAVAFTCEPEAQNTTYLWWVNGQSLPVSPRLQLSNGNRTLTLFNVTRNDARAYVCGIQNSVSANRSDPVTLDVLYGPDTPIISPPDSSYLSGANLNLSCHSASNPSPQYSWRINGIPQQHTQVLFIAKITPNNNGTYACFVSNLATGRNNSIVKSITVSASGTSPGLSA
Description: flow cytometry titration on CT26-CEA cells, IgG1, PE anti-human IgG Fc detection; the CT26-wt curve stays near 0. On the technique in general: Flow cytometry measures light scatter and fluorescence of single cells or particles in a stream.

In assay [2] the target is T1, human carcinoembryonic antigen (CEA, …). Description: immunofluorescence on LS174T tumor cryosections, FITC-labelled IgG1.
Assay [3] has as its target T2, human CEA (N-terminal domain) recombinant fragment containing a C-terminal 6xHis tag and a N-terminal BirA … (human, site specifically biotinylated using BirA (E. coli biotin ligase) at the BirA target sequence).
T2 construct: Expressed in CHO-S cells and immobilised on a streptavidin chip for all BIAcore runs; also called biotinylated CEA; human CEA N-terminal fragment
T2 chain: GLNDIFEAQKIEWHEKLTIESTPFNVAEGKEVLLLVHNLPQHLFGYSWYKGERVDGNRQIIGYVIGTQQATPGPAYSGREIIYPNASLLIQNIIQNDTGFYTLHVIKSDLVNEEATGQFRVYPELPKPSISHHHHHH
In words: SPR (BIAcore X100), monomeric scFv over biotinylated CEA N-terminal domain on streptavidin chip. In general terms: SPR reads the build-up and loss of mass on a sensor chip optically.

For assay [4], the target named is T1, human carcinoembryonic antigen (CEA, …). Description: cell-based or functional assay.

B1: F7 antibody in IgG1 format (antibody, V domains shown)
VH: EVQLLESGGGLVQPGGSLRLSCAASGFTFSRTAMSWVRQAPGKGLEWVSAISGSGGSTYYADSVKGRFTISRDNSKNTLYLQMNSLRAEDTAVYYCAKLTYARFDYWGQGTLVTVSS
VL: EIVLTQSPGTLSLSPGERATLSCRASQSVSFPYLAWYQQKPGQAPRLLIYGASSRATGIPDRFSGSGSGTDFTLTISRLEPEDFAVYYCQQSGRVPWTFGQGTKVEIK
notes: also called F7 IgG
For orientation: EC50 means the concentration giving half of the maximal effect. With B1, the EC50 in assay [1] was determined as 0.77 nM.

B2: PEA2 antibody in IgG1 format (antibody, V domains shown)
VH: EVQLLESGGGLVQPGGSLRLSCAASGFTFSRTAMSWVRQAPGKGLEWVSAIDYDGGVTYYADSVKGRFTISRDNSKNTLYLQMNSLRAEDTAVYYCAKLTYARFDYWGQGTLVTVSS
VL: EIVLTQSPGTLSLSPGERATLSCRASQSVSQNHLAWYQQKPGQAPRLLIYLASRRHTGIPDRFSGSGSGTDFTLTISRLEPEDFAVYYCQQSGRVPWTFGQGTKVEIKR
notes: also called PEA2 IgG1; PEA2 (IgG1)
Turning to B2, in assay [1], the response was half-maximal at 0.29 nM (EC50).

B3: anti-hen egg lysozyme antibody KSF in IgG1 format (antibody, V domains shown)
VH: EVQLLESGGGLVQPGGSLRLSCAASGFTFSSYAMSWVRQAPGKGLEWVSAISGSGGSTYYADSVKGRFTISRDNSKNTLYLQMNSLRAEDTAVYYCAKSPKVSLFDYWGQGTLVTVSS
VL: SSELTQDPAVSVALGQTVRITCQGDSLRSYYASWYQQKPGQAPVLVIYGKNNRPSGIPDRFSGSSSGNTASLTITGAQAEDEADYYCNSSPLNRLAVVFGGGTKLTVLG
notes: Negative control; It was conjugated to FITC for the immunofluorescence experiments; also called KSF IgG1; KSF (IgG1)
B3: the binding result in assay [2] is listed as “no binding (tested: 10 ug/mL)”.

B4: F7 antibody in scFv format (scFv)
scFv: EVQLLESGGGLVQPGGSLRLSCAASGFTFSRTAMSWVRQAPGKGLEWVSAISGSGGSTYYADSVKGRFTISRDNSKNTLYLQMNSLRAEDTAVYYCAKLTYARFDYWGQGTLVTVSSGGGGSGGGGSGGGGEIVLTQSPGTLSLSPGERATLSCRASQSVSFPYLAWYQQKPGQAPRLLIYGASSRATGIPDRFSGSGSGTDFTLTISRLEPEDFAVYYCQQSGRVPWTFGQGTKVEIK
notes: also called F7 scFv
One may read the Kd as the constant that tells how readily two partners part at equilibrium. As for B4, the Kd in assay [3] came to 50 nM.

B5: PEA2 antibody in scFv format (scFv)
scFv: EVQLLESGGGLVQPGGSLRLSCAASGFTFSRTAMSWVRQAPGKGLEWVSAIDYDGGVTYYADSVKGRFTISRDNSKNTLYLQMNSLRAEDTAVYYCAKLTYARFDYWGQGTLVTVSSGGGGSGGGGSGGGGEIVLTQSPGTLSLSPGERATLSCRASQSVSQNHLAWYQQKPGQAPRLLIYLASRRHTGIPDRFSGSGSGTDFTLTISRLEPEDFAVYYCQQSGRVPWTFGQGTKVEIK
notes: also called PEA2 scFv
Regarding B5, the Kd in assay [3] is 7.7 nM.

B6: PEA2-anti-CD3 (PUB4) bispecific antibody in scFv-IgG4 KIH format (bispecific antibody)
heavy 1: EVQLVESGGGLVQPGGSLRLSCAASGFTFSTYAMNWVRQAPGKGLEWVGRIRSKYNNYATYYADSVKDRFTISRDDSKNSLYLQMNSLKTEDTAVYYCVRHGNFGNSYVSWFAYWGQGTLVTVSSGGGGSGGGGSGGGGSQAVVTQEPSLTVSPGGTVTLTCRSSTGAVTTSNYANWVQQKPGQAPRGLIGGTNKRAPWTPARFSGSLLGGKAALTITGAQAEDEADYYCALWYSNLWVFGGGTKLTVLGGGGSGGGGSGGGGSEVQLLESGGGLVQPGGSLRLSCAASGFTFSRTAMSWVRQAPGKGLEWVSAIDYDGGVTYYADSVKGRFTISRDNSKNTLYLQMNSLRAEDTAVYYCAKLTYARFDYWGQGTLVTVSSASTKGPSVFPLAPCSRSTSESTAALGCLVKDYFPEPVTVSWNSGALTSGVHTFPAVLQSSGLYSLSSVVTVPSSSLGTKTYTCNVDHKPSNTKVDKRVESKYGPPCPPCPAPEFLGGPSVFLFPPKPKDTLMISRTPEVTCVVVDVSQEDPEVQFNWYVDGVEVHNAKTKPREEQFNSTYRVVSVLTVLHQDWLNGKEYKCKVSNKGLPSSIEKTISKAKGQPREPQVYTLPPCQEEMTKNQVSLWCLVKGFYPSDIAVEWESNGQPENNYKTTPPVLDSDGSFFLYSRLTVDKSRWQEGNVFSCSVMHEALHNHYTQKSLSLSLGK
heavy 2: EVQLLESGGGLVQPGGSLRLSCAASGFTFSRTAMSWVRQAPGKGLEWVSAIDYDGGVTYYADSVKGRFTISRDNSKNTLYLQMNSLRAEDTAVYYCAKLTYARFDYWGQGTLVTVSSASTKGPSVFPLAPCSRSTSESTAALGCLVKDYFPEPVTVSWNSGALTSGVHTFPAVLQSSGLYSLSSVVTVPSSSLGTKTYTCNVDHKPSNTKVDKRVESKYGPPCPPCPAPEFLGGPSVFLFPPKPKDTLMISRTPEVTCVVVDVSQEDPEVQFNWYVDGVEVHNAKTKPREEQFNSTYRVVSVLTVLHQDWLNGKEYKCKVSNKGLPSSIEKTISKAKGQPREPQVCTLPPSQEEMTKNQVSLSCAVKGFYPSDIAVEWESNGQPENNYKTTPPVLDSDGSFFLVSRLTVDKSRWQEGNVFSCSVMHEALHNHYTQKSLSLSLGK
light: EIVLTQSPGTLSLSPGERATLSCRASQSVSQNHLAWYQQKPGQAPRLLIYLASRRHTGIPDRFSGSGSGTDFTLTISRLEPEDFAVYYCQQSGRVPWTFGQGTKVEIKRTVAAPSVFIFPPSDEQLKSGTASVVCLLNNFYPREAKVQWKVDNALQSGNSQESVTEQDSKDSTYSLSSTLTLSKADYEKHKVYACEVTHQGLSSPVTKSFNRGEC
Take B6: the “EC50, target cell killing (LS174T cells with human PBMCs, 5 days)” value in assay [4] is 140000 nM.

B7: PEA2-anti-CD3 (PUB4) bispecific antibody in scDb-scFv with Fc KIH format (bispecific antibody, human IgG4 S228P)
heavy 1: EVQLLESGGGLVQPGGSLRLSCAASGFTFSRTAMSWVRQAPGKGLEWVSAIDYDGGVTYYADSVKGRFTISRDNSKNTLYLQMNSLRAEDTAVYYCAKLTYARFDYWGQGTLVTVSSGGSGGEIVLTQSPGTLSLSPGERATLSCRASQSVSQNHLAWYQQKPGQAPRLLIYLASRRHTGIPDRFSGSGSGTDFTLTISRLEPEDFAVYYCQQSGRVPWTFGQGTKVEIKGGGGSGGGGSGGGGSEVQLLESGGGLVQPGGSLRLSCAASGFTFSRTAMSWVRQAPGKGLEWVSAIDYDGGVTYYADSVKGRFTISRDNSKNTLYLQMNSLRAEDTAVYYCAKLTYARFDYWGQGTLVTVSSGGSGGEIVLTQSPGTLSLSPGERATLSCRASQSVSQNHLAWYQQKPGQAPRLLIYLASRRHTGIPDRFSGSGSGTDFTLTISRLEPEDFAVYYCQQSGRVPWTFGQGTKVEIKGSESKYGPPCPPCPAPEFLGGPSVFLFPPKPKDTLMISRTPEVTCVVVDVSQEDPEVQFNWYVDGVEVHNAKTKPREEQFNSTYRVVSVLTVLHQDWLNGKEYKCKVSNKGLPSSIEKTISKAKGQPREPQVYTLPPCQEEMTKNQVSLWCLVKGFYPSDIAVEWESNGQPENNYKTTPPVLDSDGSFFLYSRLTVDKSRWQEGNVFSCSVMHEALHNHYTQKSLSLSLGK
heavy 2: EVQLVESGGGLVQPGGSLRLSCAASGFTFSTYAMNWVRQAPGKGLEWVGRIRSKYNNYATYYADSVKDRFTISRDDSKNSLYLQMNSLKTEDTAVYYCVRHGNFGNSYVSWFAYWGQGTLVTVSSGGGGSGGGGSGGGGSQAVVTQEPSLTVSPGGTVTLTCRSSTGAVTTSNYANWVQQKPGQAPRGLIGGTNKRAPWTPARFSGSLLGGKAALTITGAQAEDEADYYCALWYSNLWVFGGGTKLTVLGSESKYGPPCPPCPAPEFLGGPSVFLFPPKPKDTLMISRTPEVTCVVVDVSQEDPEVQFNWYVDGVEVHNAKTKPREEQFNSTYRVVSVLTVLHQDWLNGKEYKCKVSNKGLPSSIEKTISKAKGQPREPQVCTLPPSQEEMTKNQVSLSCAVKGFYPSDIAVEWESNGQPENNYKTTPPVLDSDGSFFLVSRLTVDKSRWQEGNVFSCSVMHEALHNHYTQKSLSLSLGK
In the case of B7, in assay [4], the “EC50, target cell killing (LS174T cells with human PBMCs, 5 days)” value is 40 PM and the “fold potency in target cell killing against the scFvCD3-IgGCEA KIH format” value was found to be 3.5 fold.
